# Tested on: target antigen-expressing cell line
# Assay: Jurkat NFAT-GFP assay, coculture with target cell lines expressing the respective target antigen (summary Table 10A)
# Format: cell-based, human
# Set-up: key: The signs +/−, +, 2+ etc. after the name of the cell lines indicate the relative degree of positivity on the Jurkat-NFAT-GFP assay as measured by the % GFP positive cells; +: relative degree of positivity on the Jurkat-NFAT-GFP assay as measured by the % GFP positive cells; 2+: relative degree of positivity on the Jurkat-NFAT-GFP assay as measured by the % GFP positive cells
# Conditions: relative % GFP positive cells; for NFAT-GFP ASSAY Positive Cell lines: RAJI: SIR-expressing Jurkat-NFAT-GFP cells cocultured with RAJI
# Outline: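 Positivity is scored when SIR-expressing reporter Jurkat cells show more GFP-positive cells than parental controls after coculture with the antigen-bearing line. Effector-to-target ratio is about 1:2, coculture lasts roughly 4–18 hours, and GFP is quantified by FACS.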
Molecule,NFAT-GFP ASSAY Positive Cell lines: RAJI,NFAT-GFP ASSAY Positive Cell lines: NALM6 (SIR-expressing Jurkat-NFAT-GFP cells cocultured with NALM6)
042517-A03 (protein) MALPVTALLLPLALLLHAARPQSALTQPASASGSPGQSVTISCTGTSSDVGGYNYVSWYQQHPGKAPKLMIYDVSNRPSGVSNRFSGSKSGNTASLTISGLQAEDEADYYCSSYTSSSTLYVFGTGTQLTVLLEIQNPDPAVYQLRDSKSSDKSVCLFTDFDSQTNVSQSKDSDVYITDKCVLDMRSMDFKSNSAVAWSNKSDFACANAFNNSIIPEDTFFPSSDVPCDVKLVEKSFETDTNLNFQNLSVIGFRILLLKVAGFNLLMTLRLWSSRAKRSGSGVKQTLNFDLLKLAGDVESNPGPTSMDWIWRILFLVGAATGAHSFEEVQLQQSGPGLVKPSQTLSLTCAISGDSMLSNSDTWNWIRQSPSRGLEWLGRTYHRSTWYDDYASSVRGRVSINVDTSKNQYSLQLNAVTPEDTGVYYCARVRLQDGNSWSDAFDVWGQGTMVTVSSTREDLKNVFPPEVAVFEPSKAEIAHTQKATLVCLATGFYPDHVELSWWVNGKEVHSGVCTDPQPLKEQPALNDSRYCLSSRLRVSATFWQNPRNHFRCQVQFYGLSENDEWTQDRAKPVTQIVSAEAWGRADCGITSASYHQGVLSATILYEILLGKATLYAVLVSALVLMAMVKRKDSRGRAKRSGSGATNFSLLKQAGDVEENPGPSRGHMTEYKPTVRLATRDDVPRAVRTLAAAFADYPATRHTVDPDRHIERVTELQELFLTRVGLDIGKVWVADDGAAVAVWTTPESVEAGAVFAEIGPRMAELSGSRLAAQQQMEGLLAPHRPKEPAWFLATVGVSPDHQGKGLGSAVVLPGVEAAERAGVPAFLETSAPRNLPFYERLGFTVTADVEVPEGPRTWCMTRKPGA,RAJI (+),–
041117-S01 (protein) MALPVTALLLPLALLLHAARPEVQLQQSGPGLVKPSQTLSLTCAISGDSVLSNSDTWNWIRQSPSRGLEWLGRTYHRSTWYDDYASSVRGRVSINVDTSKNQYSLQLNAVTPEDTGVYYCARDRLQDGNSWSDAFDVWGQGTMVTVSSLEDLKNVFPPEVAVFEPSKAEIAHTQKATLVCLATGFYPDHVELSWWVNGKEVHSGVCTDPQPLKEQPALNDSRYCLSSRLRVSATFWQNPRNHFRCQVQFYGLSENDEWTQDRAKPVTQIVSAEAWGRADCGITSASYHQGVLSATILYEILLGKATLYAVLVSALVLMAMVKRKDSRGRAKRSGSGATNFSLLKQAGDVEENPGPTSMDWIWRILFLVGAATGAHSFEQSALTQPASVSGSPGQSITISCTGTSSDVGGYNYVSWYQQHPGKAPKLMIYDVSNRPSGVSNRFSGSKSGNTASLTISGLQAEDEADYYCSSYTSSSTLVYVFGTGTKVTVLTRIQNPDPAVYQLRDSKSSDKSVCLFTDFDSQTNVSQSKDSDVYITDKCVLDMRSMDFKSNSAVAWSNKSDFACANAFNNSIIPEDTFFPSSDVPCDVKLVEKSFETDTNLNFQNLSVIGFRILLLKVAGFNLLMTLRLWSSRAKRSGSGVKQTLNFDLLKLAGDVESNPGPSRGHMTEYKPTVRLATRDDVPRAVRTLAAAFADYPATRHTVDPDRHIERVTELQELFLTRVGLDIGKVWVADDGAAVAVWTTPESVEAGAVFAEIGPRMAELSGSRLAAQQQMEGLLAPHRPKEPAWFLATVGVSPDHQGKGLGSAVVLPGVEAAERAGVPAFLETSAPRNLPFYERLGFTVTADVEVPEGPRTWCMTRKPGA,RAJI (+/−),–
041917-L04 (protein) MALPVTALLLPLALLLHAARPLEGKPIPNPLLGLDSTGSGEDLKNVFPPEVAVFEPSKAEIAHTQKATLVCLATGFYPDHVELSWWVNGKEVHSGVCTDPQPLKEQPALNDSRYCLSSRLRVSATFWQNPRNHFRCQVQFYGLSENDEWTQDRAKPVTQIVSAEAWGRADCGITSASYHQGVLSATILYEILLGKATLYAVLVSALVLMAMVKRKDSRGRAKRSGSGATNFSLLKQAGDVEENPGPTSMALPVTALLLPLALLLHAARPQVQLVQSGAEVKKPGASVKVSCKASGYTFTSYDINWVRQATGQGLEWMGWMNPNSGNTGYAQKFQGRVTMTRNTSISTAYMELSSLRSEDTAVYYCARGDSTKVEIKGGGGSGGGGSGGGGSQSVLTQPRSVSGSPGQSVTISCTGTSSDVGGYNYVSWYQQHPGEAPKLIIYDADKRPSGISNRFSSGKSGNTASLTISGLQVEDEADYYCCSYAGGSTWVFGGGTKVTVLTREQKLISEEDGSGIQNPDPAVYQLRDSKSSDKSVCLFTDFDSQTNVSQSKDSDVYITDKCVLDMRSMDFKSNSAVAWSNKSDFACANAFNNSIIPEDTFFPSSDVPCDVKLVEKSFETDTNLNFQNLSVIGFRILLLKVAGFNLLMTLRLWSSRAKRSGSGVKQTLNFDLLKLAGDVESNPGPSRGHMTEYKPTVRLATRDDVPRAVRTLAAAFADYPATRHTVDPDRHIERVTELQELFLTRVGLDIGKVWVADDGAAVAVWTTPESVEAGAVFAEIGPRMAELSGSRLAAQQQMEGLLAPHRPKEPAWFLATVGVSPDHQGKGLGSAVVLPGVEAAERAGVPAFLETSAPRNLPFYERLGFTVTADVEVPEGPRTWCMTRKPGA,RAJI (+/−),–
040417-W08 (protein) MALPVTALLLPLALLLHAARPQVQLVQSGAEVKKPGASVKVSCKASGYTFTSYDINWVRQATGQGLEWMGWMNPNSGNTGYAQKFQGRVTMTRNTSISTAYMELSSLRSEDTAVYYCARGDSTKVEIKLEIQNPDPAVYQLRDSKSSDKSVCLFTDFDSQTNVSQSKDSDVYITDKCVLDMRSMDFKSNSAVAWSNKSDFACANAFNNSIIPEDTFFPSSDVPCDVKLVEKSFETDTNLNFQNLSVIGFRILLLKVAGFNLLMTLRLWSSRAKRSGSGVKQTLNFDLLKLAGDVESNPGPTSMDWIWRILFLVGAATGAHSFEQSVLTQPRSVSGSPGQSVTISCTGTSSDVGGYNYVSWYQQHPGEAPKLIIYDADKRPSGISNRFSSGKSGNTASLTISGLQVEDEADYYCCSYAGGSTWVFGGGTKVTVLTREDLKNVFPPEVAVFEPSKAEIAHTQKATLVCLATGFYPDHVELSWWVNGKEVHSGVCTDPQPLKEQPALNDSRYCLSSRLRVSATFWQNPRNHFRCQVQFYGLSENDEWTQDRAKPVTQIVSAEAWGRADCGITSASYHQGVLSATILYEILLGKATLYAVLVSALVLMAMVKRKDSRGRAKRSGSGATNFSLLKQAGDVEENPGPSRGHMTEYKPTVRLATRDDVPRAVRTLAAAFADYPATRHTVDPDRHIERVTELQELFLTRVGLDIGKVWVADDGAAVAVWTTPESVEAGAVFAEIGPRMAELSGSRLAAQQQMEGLLAPHRPKEPAWFLATVGVSPDHQGKGLGSAVVLPGVEAAERAGVPAFLETSAPRNLPFYERLGFTVTADVEVPEGPRTWCMTRKPGA,RAJI (2+),–
040417-V03 (protein) MALPVTALLLPLALLLHAARPEVQLVESGGGLVQPGRSLRLSCAASGFTFDDYAMHWVRQAPGKGLEWVSGISWNSGSIGYADSVKGRFTISRDNAKNSLYLQMNSLRAEDTALYYCAKDKGGGYYDFWSGSDYWGQGTLVTVSSLEIQNPDPAVYQLRDSKSSDKSVCLFTDFDSQTNVSQSKDSDVYITDKCVLDMRSMDFKSNSAVAWSNKSDFACANAFNNSIIPEDTFFPSSDVPCDVKLVEKSFETDTNLNFQNLSVIGFRILLLKVAGFNLLMTLRLWSSRAKRSGSGVKQTLNFDLLKLAGDVESNPGPTSMDWIWRILFLVGAATGAHSFESSELTQDPAVSVALGQTVRITCQGDSLRSYYASWYQQKPGQAPVLVIYGKNNRPSGIPDRFSGSSSGNTASLTITGAQAEDEADYYCNSRDSSGWVFGGGTKLTVLTREDLKNVFPPEVAVFEPSKAEIAHTQKATLVCLATGFYPDHVELSWWVNGKEVHSGVCTDPQPLKEQPALNDSRYCLSSRLRVSATFWQNPRNHFRCQVQFYGLSENDEWTQDRAKPVTQIVSAEAWGRADCGITSASYHQGVLSATILYEILLGKATLYAVLVSALVLMAMVKRKDSRGRAKRSGSGATNFSLLKQAGDVEENPGPSRGHMTEYKPTVRLATRDDVPRAVRTLAAAFADYPATRHTVDPDRHIERVTELQELFLTRVGLDIGKVWVADDGAAVAVWTTPESVEAGAVFAEIGPRMAELSGSRLAAQQQMEGLLAPHRPKEPAWFLATVGVSPDHQGKGLGSAVVLPGVEAAERAGVPAFLETSAPRNLPFYERLGFTVTADVEVPEGPRTWCMTRKPGA,RAJI (+/−),–
042517-B02 (protein) MALPVTALLLPLALLLHAARPQSALTQPASASGSPGQSVTISCTGTSSDVGGYNYVSWYQQHPGKAPKLMIYDVSNRPSGVSNRFSGSKSGNTASLTISGLQAEDEADYYCSSYTSSSTLYVFGTGTQLTVLLEDLKNVFPPEVAVFEPSKAEIAHTQKATLVCLATGFYPDHVELSWWVNGKEVHSGVCTDPQPLKEQPALNDSRYCLSSRLRVSATFWQNPRNHFRCQVQFYGLSENDEWTQDRAKPVTQIVSAEAWGRADCGITSASYHQGVLSATILYEILLGKATLYAVLVSALVLMAMVKRKDSRGRAKRSGSGATNFSLLKQAGDVEENPGPTSMDWIWRILFLVGAATGAHSFEEVQLQQSGPGLVKPSQTLSLTCAISGDSMLSNSDTWNWIRQSPSRGLEWLGRTYHRSTWYDDYASSVRGRVSINVDTSKNQYSLQLNAVTPEDTGVYYCARVRLQDGNSWSDAFDVWGQGTMVTVSSTRIQNPDPAVYQLRDSKSSDKSVCLFTDFDSQTNVSQSKDSDVYITDKCVLDMRSMDFKSNSAVAWSNKSDFACANAFNNSIIPEDTFFPSSDVPCDVKLVEKSFETDTNLNFQNLSVIGFRILLLKVAGFNLLMTLRLWSSRAKRSGSGVKQTLNFDLLKLAGDVESNPGPSRGHMTEYKPTVRLATRDDVPRAVRTLAAAFADYPATRHTVDPDRHIERVTELQELFLTRVGLDIGKVWVADDGAAVAVWTTPESVEAGAVFAEIGPRMAELSGSRLAAQQQMEGLLAPHRPKEPAWFLATVGVSPDHQGKGLGSAVVLPGVEAAERAGVPAFLETSAPRNLPFYERLGFTVTADVEVPEGPRTWCMTRKPGA,"RAJI (+), NALM6",(+/−)
